# Patent US5843749, “Ehk and Ror tyrosine kinases” (Regeneron Pharmaceuticals, Inc., dated 1998)
# B1: Murine 2.5S NGF (ligand)
# chain: SSTHPVFHMGEFSVCDSVSVWVGDKTTATDIKGKEVTVLAEVNINNSVFRQYFFETKCRASNPVESGCRGIDSKHWNSYCTTTHTFVKALTTDEKQAAWRFIRIDTACVCVLSRKATR
# modifications: radioiodinated (125I, lactoperoxidase method) where used as the labeled ligand
# B2: brain derived neurotrophic factor (human BDNF, produced in CHO cells) (ligand)
# chain: HSDPARRGELSVCDSISEWVTAADKKTAVDMSGGTVTVLEKVPVSKGQLKQYFYETKCNPMGYTKEGCRGIDKRHWNSQCRTTQSYVRALTMDSKKRIGWRFIRIDTSCVCTLTIKRGR
# modifications: radioiodinated (125I, lactoperoxidase method) where used as the labeled ligand
# B3: neurotrophin-3 (human NT-3, produced in CHO cells) (ligand)
# chain: YAEHKSHRGEYSVCDSESLWVTDKSSAIDIRGHQVTVLGEIKTGNSPVKQYFYETRCKEARPVKNGCRGIDDKHWNSQCKTSQTYVRALTSENNKLVGWRWIRIDTSCVCALSRKIGRT
# modifications: radioiodinated (125I, lactoperoxidase method) where used as the labeled ligand
# Columns and labels:
# [1] = molecular target: rat trkB (full-length, pCMX-trkB or pLTR-trkB) (rat, UniProt Q63604); assay: DSS cross-linking of 125I-NGF to COS cells transfected with pCMX-trkB
# Procedure: COS-M5 cells were transiently transfected with either the pCMX-LNGFR, pCMX-trkB, or control vector (pCMX) by the DEAE-dextran transfection protocol. Briefly, COS-M5 cells were plated at a density of 1.5 ×10^6 cells per 100 mm plate 24 hours prior to transfection. For transfection, the cells were cultured in serum-free DMEM containing 400 μg/ml of DEAE-dextran, 1 μM chloroquine, 2 mM glutamine, 20 μg/ml insulin, 5 μg/ml transferrin, 33 nM sodium selenite, and 5 μg of the appropriate DNA for 3 hours and 15 minutes at 37° C. in an atmosphere of 5% CO2. The transfection media was aspirated and replaced with phosphate-buffered saline with 10% DMSO for 2 min. Following this DMSO "shock", the COS-M5 cells were placed into DMEM with 10% FBS, 1% each of penicillin and streptomycin, and 2 mM glutamine for 48 hours.
# Cells were harvested in phosphate-buffered saline containing 1 mM EDTA, 1 mg/ml glucose and 25 mM HEPES (PBS-versene) and resuspended at an appropriate density (generally 1 ×10^6 cells per ml) in ice-cold binding buffer A (PBS containing 1 mg/ml each of BSA and glucose). pCMX-trkB or pCMX vector transfected COS-M5 cells (4 ×10^5 cells) were incubated on ice with ^125I-labeled neurotrophins (final concentration estimated to be between 0.1 and 0.25 nM) for 90 minutes in the absence or presence of unlabeled NGF, BDNF or NT-3 (see FIGS. 1 and 3). […]
# [2] = molecular target: rat trkB (full-length, pCMX-trkB or pLTR-trkB) (rat) (UniProt Q63604)
# [3] = molecular target: human low affinity nerve growth factor receptor (LNGFR) (human, UniProt P08138); assay: competition of cross-linking, competitor 125I-NT-3, pCMX-LNGFR COS cells
Binder,binding result [1],"dose-response survival assay of trkB-expressing NIH3T3 cells, concentration at which activity is obvious [2]",binding result [3],"dose-response survival assay of trkB-expressing NIH3T3 cells, concentration at which effects are discernible [2]","dose-response survival assay of trkB-expressing NIH3T3 cells, effectiveness against BDNF [2]"
B1,no binding,,,,
B2,,0.5 to 5 pM,binds,,
B3,,,binds,50 pM,< 10 fold
